Legend:
[1] = target: Reconstituted nicked mononucleosome (recombinant histone octamer on 601.2 DNA with a site-specific nick) (Xenopus laevis | not stated); assay: Ni-NTA nanogold labelling with negative-stain electron microscopy; full-length His-tagged cPARP3 incubated for 30 min with intact or nicked nucleosomes; Ni-NTA-conjugated 5 nm gold added at 1:10 (cPARP3-nucleosomes:Ni-gold); negative stain with 2% uranyl acetate
[2] = tested on: His-tagged cPARP3 (Gallus gallus); assay: negative-stain EM with Ni-NTA nanogold; conditions: NMR: 20 mM Tris-HCl pH 7.0, 125 mM NaCl, 1 mM TCEP, 10% D2O, 303 K, ~300 uM protein, EMSA and EM buffers not given in material
cPARP3 NTD-WGR (1-169) [3] = target: T1, cPARP3 NTD-WGR (1-169) (Gallus gallus, UniProt E1BSI0 1-169); assay: NMR (1H-15N HSQC titration); protein:DNA 5:1 to 1:2; NMR: 20 mM Tris-HCl pH 7.0, 125 mM NaCl, 1 mM TCEP, 10% D2O, 303 K, ~300 uM protein; EMSA and EM buffers not given in material; conditions: protein: recombinant; tags: N-terminal His tag (pNIC28-Bsa4) removed by TEV; 15N/13C labelled; nicked duplex: S42 (10 nt) and S43 (9 nt) annealed to S41
T1 sequence: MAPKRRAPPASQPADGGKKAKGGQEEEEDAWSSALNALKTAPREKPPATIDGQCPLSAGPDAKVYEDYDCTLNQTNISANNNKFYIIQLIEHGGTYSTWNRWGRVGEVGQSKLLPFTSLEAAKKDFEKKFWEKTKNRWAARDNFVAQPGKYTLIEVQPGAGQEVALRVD

cPARP3 NTD-WGR (1-169) [4] = target: T1, cPARP3 NTD-WGR (1-169); assay: NMR (1H-15N HSQC); NMR: 20 mM Tris-HCl pH 7.0, 125 mM NaCl, 1 mM TCEP, 10% D2O, 303 K, ~300 uM protein; EMSA and EM buffers not given in material; conditions: protein: recombinant; tags: N-terminal His tag (pNIC28-Bsa4) removed by TEV; 15N/13C labelled; 9 bp with 3' overhang 10 nt on S41

In the case of “Full-length His-tagged chicken PARP3 (from UniProt E1BSI0 1-526) (enzyme)”, the percent of nucleosomes with a co-locating gold particle [1] is reported as 85%.

For intact 601.2 mononucleosome, the binding signal (% of nucleosomes with gold particle) [2] was 30.

For nicked 601.2 mononucleosome, the binding signal (% of nucleosomes with gold particle) ([2]; single nick at nucleotide 45 (Nt.BsmAI)) was 85.

B1: 19-bp duplex with 5'-phosphorylated nick (Gap0 NMR) (dsDNA)
DNA 1: GCACAGCCGTGAGCGATGC
DNA 2: GCATCGCTCA
DNA 3: CGGCTGTGC
modifications: 5'-phosphate on S43
B1: binds (cPARP3 NTD-WGR (1-169) [3]).

B2: 10-nt 3'-overhang duplex with recessed 5'-phosphate (dsDNA)
DNA 1: GCACAGCCGTGAGCGATGC
DNA 2: CGGCTGTGC
modifications: 5'-phosphate on S43
B2: binds (cPARP3 NTD-WGR (1-169) [4]).
